T1: Mouse IL11RA (50075-M08H, SinoBiological); mouse interleukin 11 receptor alpha chain 1 (mouse, UniProt Q64385 24-367)
T1 construct: also called mIL11RA1; IL11RA1
T1 sequence (looked up): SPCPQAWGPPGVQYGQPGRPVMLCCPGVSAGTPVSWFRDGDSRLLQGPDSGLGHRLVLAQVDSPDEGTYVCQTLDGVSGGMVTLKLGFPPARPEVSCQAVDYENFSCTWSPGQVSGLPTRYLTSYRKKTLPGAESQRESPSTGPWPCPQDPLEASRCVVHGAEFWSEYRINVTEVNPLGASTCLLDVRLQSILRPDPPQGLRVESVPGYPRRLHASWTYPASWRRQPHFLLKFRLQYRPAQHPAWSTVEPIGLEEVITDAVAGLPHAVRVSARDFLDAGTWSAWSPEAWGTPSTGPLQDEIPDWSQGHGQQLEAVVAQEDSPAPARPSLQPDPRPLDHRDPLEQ

T2: Human IL11RA (10252-H08H, SinoBiological) (human, UniProt Q14626 23-365)
T2 construct: also called hIL11RA
T2 sequence: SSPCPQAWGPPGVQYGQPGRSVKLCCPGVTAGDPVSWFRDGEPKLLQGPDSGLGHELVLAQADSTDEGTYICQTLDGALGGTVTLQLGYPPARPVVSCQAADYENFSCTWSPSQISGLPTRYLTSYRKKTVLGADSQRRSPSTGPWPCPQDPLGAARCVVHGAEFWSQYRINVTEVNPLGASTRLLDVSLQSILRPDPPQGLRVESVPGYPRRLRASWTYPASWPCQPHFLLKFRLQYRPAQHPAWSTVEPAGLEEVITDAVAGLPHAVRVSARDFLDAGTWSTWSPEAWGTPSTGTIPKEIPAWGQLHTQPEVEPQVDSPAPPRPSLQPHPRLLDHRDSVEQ


Legend:
[1] = target: T1, Mouse IL11RA (50075-M08H, …); assay: SPR (BIAcore T200), IL11 immobilized on CM5, receptor as analyte, 1:1 Langmuir fit; rmIL11 (mouse ligand) on mouse IL11RA1
Protocol: (§1) SPR measurements were performed on a BIAcore T200 (GE Healthcare) at 25° C. Buffers were degassed and filter-sterilized through 0.2 μm filters prior to use. RhIL11 or rmIl11 was immobilized onto a carboxymethylated dextran (CM5) sensor chip using standard amine coupling chemistry. For kinetic analysis, a concentration series (3.125 nM to 100 nM) of human IL11RA or mouse Il11ra was injected over the rhIL11, rmIl11 and reference surfaces at a flow rate of 40 μl min⁻¹. All the analytes were dissolved in HBS-EP+ (BR100669, GE Healthcare) containing 1 mg ml⁻¹ BSA. The association and dissociation were measured for 150 s and 200 s respectively. After each analyte injection, the surface was regenerated by a 30 s injection of Glycine pH2.5, followed by a 5 min stabilisation period. All sensorgrams were aligned and double-referenced. Affinity and kinetic constants were determined by fitting the corrected sensorgrams with the 1:1 Langmuir model using BIAevaluation v3.0 software (GE Healthcare). The equilibrium binding constant KD was determined by the ratio of the binding rate constants kd/ka.

[2] = target: T1, Mouse IL11RA (50075-M08H, …); assay: SPR (BIAcore T200, 25 C): rmIL11 immobilized on a CM5 chip, mouse IL11RA injected as analyte (3.125 to 100 nM), 1:1 Langmuir fit
Protocol: as §1

[3] = target: T1, Mouse IL11RA (50075-M08H, …); assay: SPR (BIAcore T200): ligand mIL11 immobilized, analyte mIL11RA, 1:1 Langmuir fit
Protocol: as §1

[4] = target: T1, Mouse IL11RA (50075-M08H, …); assay: SPR (BIAcore T200, 25 C): rhIL11 immobilized on a CM5 chip, mouse IL11RA injected as analyte (3.125 to 100 nM), 1:1 Langmuir fit
Protocol: as §1

[5] = target: T1, Mouse IL11RA (50075-M08H, …); assay: SPR (BIAcore T200), IL11 immobilized on CM5, receptor as analyte, 1:1 Langmuir fit; rhIL11 (human ligand) on mouse IL11RA1
Protocol: as §1

[6] = target: T1, Mouse IL11RA (50075-M08H, …); assay: SPR (BIAcore T200): ligand hIL11 immobilized, analyte mIL11RA, 1:1 Langmuir fit
Protocol: as §1

[7] = target: T2, Human IL11RA (10252-H08H, …); assay: SPR (BIAcore T200): ligand hIL11 immobilized, analyte hIL11RA, 1:1 Langmuir fit
Protocol: as §1

[8] = target: T2, Human IL11RA (10252-H08H, …); assay: SPR (BIAcore T200, 25 C): rhIL11 immobilized on a CM5 chip, human IL11RA injected as analyte (3.125 to 100 nM), 1:1 Langmuir fit
Protocol: as §1

Kd [1] [nM] | Kd [2] [nM] | Kd [3] [nM] | koff [3] [s⁻¹] | kon [3] [M⁻¹ s⁻¹] | Kd [4] [nM] | Kd [5] [nM] | Kd [6] [nM] | koff [6] [s⁻¹] | kon [6] [M⁻¹ s⁻¹] | Kd [7] [nM] | koff [7] [s⁻¹] | kon [7] [M⁻¹ s⁻¹] | Kd [8] [nM] | Binder
94 | 94.1 | 94.1 | 0.0115 | 122000 |  |  |  |  |  |  |  |  |  | Recombinant mouse IL11 (rmIL11, UniProtKB: P47873, Genscript) (ligand, UniProt P47873 22-199, looked up, Amine-coupled to a CM5 chip in SPR; also called biotinylated mouse Il11) PGPPAGSPRVSSDPRADLDSAVLLTRSLLADTRQLAAQMRDKFPADGDHSLDSLPTLAMSAGTLGSLQLPGVLTRLRVDLMSYLRHVQWLRRAGGPSLKTLEPELGALQARLERLLRRLQLLMSRLALPQAAPDQPVIPLGPPASAWGSIRAAHAILGGLHLTLDWAVRGLLLLKTRL
 |  |  |  |  | 72.3 | 72 | 72.3 | 0.012 | 166000 | 45.3 | 0.0204 | 451000 | 45.3 | Recombinant human IL11 (rhIL11, UniProtKB:P20809, Genscript) (ligand, It was amine-coupled to a CM5 chip in SPR) PGPPPGPPRVSPDPRAELDSTVLLTRSLLADTRQLAAQLRDKFPADGDHNLDSLPTLAMSAGALGALQLPGVLTRLRADLLSYLRHVQWLRRAGGSSLKTLEPELGTLQARLDRLLRRLQLLMSRLALPQPPPDPPAPPLAPPSSAWGGIRAAHAILGGLHLTLDWAVRGLLLLKTRL

— patent US20200262910A1 (SINGAPORE HEALTH SERVICES PTE, published 2020)
